In WO2008131575A2 (dated 2008):

Biological target: T1, human ALK epitope peptide (amino acids 391-406 of the ALK protein) (human)
T1 construct: the underscore is a remnant of the underlining; In the yeast screen it was fused to LexA; in the ELISA it is called the Alk LBD peptide; also called Alk LBD peptide; AIk LBD
T1 peptide: GRIGRPDNPFRVALEY
Assay: ELISA (Fig. 5)

Kd: 2 to 3 nM
B1: scFv 28.11 (scFv)
scFv: QSVLTQPPSVSAAPGQKVTISCSGSTSNIGDNYVSWYQQLPGTAPQLLIYDNTKRPSGIPDRFSGSKSGTSATLGITGLQTGDEADYYCATWDNDKWGVVFGGGTKLEVLGGGGGSGGGGSGGGGSSGGGSEVQLVESGGGLVQPGGSLRLSCAASGFTFSSYAMSWVRQAPGKGLEWVSAIETSSGSTYYADSVKGRFTISRDNSKNTLYLQMNSLRAEDTAVYYCARDAWLDVLSDGFDYWGQGTLVTVSS
